B1: del 4: CoREST deletion mutant aa 105-293 (protein)
chain: GPQYQAVVPDFDPAKLARRSQERDNLGMLVWSPNQNLSEAKLDEYIAIAKEKHGYNMEQALGMLFWHKHNIEKSLADLPNFTPFPDEWTVEDKVLFEQAFSFHGKTFHRIQQMLPDKSIASLVKFYYSWKKTRTKTSVMDRHARKQKREREESEDELEEANGNNPIDIEVDQNKESKKEVPPTETVPQV
modifications: left off: small tags and cut ends
B2: del 1: CoREST deletion mutant aa 1-293 (protein)
chain: MVEKGPEVSGKRRGRNNAAASASAAAASAAASAACASPAATAASGAAASSASAAAASAAAAPNNGQNKSLAAAAPNGNSSSNSWEEGSSGSSSDEEHGGGGMRVGPQYQAVVPDFDPAKLARRSQERDNLGMLVWSPNQNLSEAKLDEYIAIAKEKHGYNMEQALGMLFWHKHNIEKSLADLPNFTPFPDEWTVEDKVLFEQAFSFHGKTFHRIQQMLPDKSIASLVKFYYSWKKTRTKTSVMDRHARKQKREREESEDELEEANGNNPIDIEVDQNKESKKEVPPTETVPQV
modifications: left off: small tags and cut ends

Experiments:
[1] = molecular target: T1, GST-LSD1 (Homo sapiens, UniProt O60341); assay: GST pulldown of HIS-tagged CoREST and mutants; format: binding; conditions: Coomassie Blue staining
T1 construct: made in house; host or cells: bacteria (inferred from 'similar procedure' to the His-tagged proteins)
Method: To identify domains of CoREST that are involved in physical interactions with LSD1, GST-LSD1 or GST was incubated with bacterially purified, HIS-tagged CoREST and its mutant derivatives. […] This places the putative LSD1-binding domain within the C-terminal functional domain of CoREST, somewhere between aa 293-381 of CoREST. […] We therefore speculate that the SANT2 domain may be involved in mediate binding to the nucleosomal substrate. Taken together, these findings are consistent with the idea that CoREST functions as a bridging protein. The weak stimulatory activity of the N-terminal CoREST (del1, aa 1-293) remains unclear at the present time.
GST and GSTLSD1 plamsids were kind gifts from Dr. Tadashi Baba's Lab in Japan (Iwase et al., 2004). Expression and purification of GST and GSTLSD1 proteins were done using similar procedure as outlined for purification of his-tagged recombinant proteins. For GST-bead pulldown experiment, 2 μg of each purified his-tagged wt or del CoREST proteins were incubated with 5 μg of bound GST and GSTLSD1 proteins at 4° C. for 4 hrs in a binding buffer (50 mM Tris, pH 8.0, 300 mM NaCl, 1 mM DTT, 0.5 mM EDTA and 0.1% NP-40). The beads were washed 3 times in the binding buffer, resuspended in 2×SDS protein sample buffer, boiled for 5 mins and loaded onto 15% SDS PAGE gel. The gel was then stained with Coomassie Blue.

[2] = molecular target: T2, LSD1 (Homo sapiens, UniProt O60341); assay: LSD1 demethylation assay on nucleosomal substrates (mononucleosomes), Western blotting; format: biochemical; conditions: CoREST deletion mutant
T2 construct: Full length (1-851aa) and C-terminal deleted (1-427 aa) human LSD1 cDNAs; 6xHis (N); made in house; host or cells: bacteria
Method: Preparation of mononucleosome. Mononucleosome was made according to a standard protocol (Tagami et al., 2004; Utley et al., 1996). Briefly, nuclear pellet from both TSA-treated or non-treated HeLa cells was homogenized for 60 times with type A pestle to obtain oligo-nucleosomes. The oligo-nucleosomes were then digested with micrococcal nuclease (40 units/mL) for 10 mins at 30° C. The nuclease is inactivated by 5 mM EDTA. Digested materials were spun at 14000 rpm for 3 mins. Resulting supernatant was spun again for additional 3 mins at the same speed. Supernatant from the second spin was subject to 10-25% glycerol gradient sedimentation. The monocleosome-containing fractions were identified by examining aliquots of fractions (treated with proteinase K) on DNA agarose gel. An aliquot of TSA-treated or non TSA-treated mononucleosome, a kind gift from Dr. Yoshihiro Nakatani's Lab in Dana Faber Cancer Institute, Harvard Medical School (Tagami et al., 2004), was used here as a control for the quality of mononucleosome made in our lab.
Demethylation assay. LSD1 demethylation activity on free histone or nucleosomal histone was carried out as previously reported (Shi et al., 2004). […] The demethylase activity of LSD1 under various conditions was evaluated by Western blotting using K4-H3 methylation-specific antibodies.

Row | Molecule | binding to LSD1 [1] | stimulatory activity on LSD1 demethylation [2]
1 | B1 | did not | –
2 | B2 | did not | ~30 % of the wildtype CoREST activity
